Experimental data published in the supplement of paper PMC9732359.
± gives the uncertainty stated by the source.

Experiment: protein stability index of a GFP-peptide fusion (yeast GPS) (PSI 1-4); higher = more stable; sorted into four equal gates, so the index is relative within each strain
Outline: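 Each library plasmid carries Cherry plus GFP with a tiled 17-residue yeast protein peptide fused downstream, and the pooled library was carried in yeast. Mid-log cultures in leucine-free medium were sorted into four equal gates by GFP/Cherry ratio. Reads from Illumina sequencing of PCR-amplified plasmids from each gate were assigned to strains by barcodes. Per peptide, the protein stability index was computed as the summed products of gate read frequency and gate number.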

Sequence	protein stability index (doa10∆)	protein stability index (pdr5∆)	protein stability index (san1∆)	protein stability index (ubr1∆)
GKGDNDNGLGPLKYAPH [SWI3]	2.69 ± 0.058	3.39 ± 0.12	2.85 ± 0.085	2.7 ± 0.052
VDIYTHFTSPIRRYCDV [DIS3]	1.61 ± 0.043	1.91 ± 0.055	1.94 ± 0.073	2.19 ± 0.04
VADAKQLGEWAGLGKID [RPS12]	3.67 ± 0.28	–	3.46 ± 0.24	3.35 ± 0.13
LVPKRCLFESLSNEAAL [RPO31]	–	2.84 ± 0.2	–	2.78 ± 0.22
LITSEMFDAFVSFYFED [SIN4]	1.94 ± 0.1	2.59 ± 0.061	1.87 ± 0.093	2.93 ± 0.081
RTRRLKRKRRKVRARSK [RPL41A]	–	3.13 ± 0.22	–	3.22 ± 0.2
GLSILFLTGQFASNKKI [YML103C/NUP188]	2.36 ± 0.068	2.37 ± 0.062	2.68 ± 0.079	2.35 ± 0.052
HASFLCSFITQDKMFVS [FAS1]	2.01 ± 0.063	1.64 ± 0.056	1.35 ± 0.1	1.35 ± 0.033
NANDETTAVEDEDDDLD [RPB4]	3.47 ± 0.1	3.13 ± 0.1	3.25 ± 0.093	3.25 ± 0.092
QFEWHQNSLLTNTHPNF [SNF2]	2.87 ± 0.063	2.88 ± 0.08	3.09 ± 0.066	2.99 ± 0.047
LLVNPDIDLETYSFIDN [YML103C/NUP188]	2.79 ± 0.059	2.6 ± 0.048	2.66 ± 0.056	2.6 ± 0.038
HDEKTLAPSKHQPITSE [SIR4]	2.08 ± 0.088	2.27 ± 0.1	2.33 ± 0.12	2.27 ± 0.22
EITVVKPDSDIVALSSE [PRE6]	3.1 ± 0.058	3.23 ± 0.051	3.24 ± 0.04	3.3 ± 0.049
CDYYNTFLLNNKNIDIG [RPN2]	3.14 ± 0.087	3.04 ± 0.076	2.85 ± 0.069	2.79 ± 0.086
SDSLDIAQGIDLVRDID [SRP72]	3.29 ± 0.11	3.38 ± 0.088	3.09 ± 0.077	3.26 ± 0.1
KMKIQETISKLNEYKRE [SMC2]	1.3 ± 0.065	1.48 ± 0.051	2.35 ± 0.084	1.93 ± 0.036
TTLTIMRILPRETDPLV [RPT4]	2.63 ± 0.068	2.62 ± 0.057	2.73 ± 0.064	2.52 ± 0.039
FRFQGGIIVAVDSRATA [PRE2]	1.45 ± 0.063	1.54 ± 0.072	1.3 ± 0.12	1.62 ± 0.078
RGPYLVIVPLSTLSNWS [SNF2]	1.84 ± 0.051	2.32 ± 0.062	2.17 ± 0.065	2.41 ± 0.035
LREYLNLPEHIVPGTYI [RPS10A]	3.08 ± 0.078	3.08 ± 0.064	2.82 ± 0.056	2.75 ± 0.059
WGAETDELSMIMEHFSQ [RPS12]	2.93 ± 0.11	3.12 ± 0.17	3.44 ± 0.071	3.29 ± 0.12
PSLNKTINGKVNGRTKS [GAL11]	3.06 ± 0.14	3.07 ± 0.13	2.98 ± 0.14	3.11 ± 0.14
TFENTNNTEKNDVTNKN [SIR4]	2.78 ± 0.094	2.89 ± 0.068	2.88 ± 0.059	3.04 ± 0.039
AIHIFESYYNWKYNNFL [YML103C/NUP188]	2.04 ± 0.13	1.6 ± 0.1	1.94 ± 0.24	2.62 ± 0.17
TDLKKIIKANQLILSDV [RET1]	2.57 ± 0.055	2.34 ± 0.053	2.48 ± 0.053	2.39 ± 0.05
RDEMSKAELPQWYTLQS [MED8]	2.92 ± 0.05	3.12 ± 0.043	2.87 ± 0.038	3.01 ± 0.043

Sequence	protein stability index (doa10∆)	protein stability index (pdr5∆)	protein stability index (san1∆)	protein stability index (ubr1∆)
HSVQETNKISPKDFSPN [SSN2]	3.37 ± 0.094	2.68 ± 0.078	2.93 ± 0.054	3.11 ± 0.07
ASRDKTLISWKLTGDDQ [ASC1]	1.32 ± 0.14	1.68 ± 0.13	–	1.61 ± 0.094
KAKAQAQAQAQAQAQVY [PGD1]	2.96 ± 0.11	3.26 ± 0.088	3.04 ± 0.083	3 ± 0.066
HKKKRSNAAGADDAISM [SRB8]	3.06 ± 0.11	2.45 ± 0.067	2.83 ± 0.18	2.75 ± 0.054
EDTPANDSSATRSWRPP [RPB8]	2.44 ± 0.24	2.88 ± 0.18	2.47 ± 0.2	2.95 ± 0.084
KRNGDEVYTLVDSQGLP [ARP7]	3.35 ± 0.17	3.34 ± 0.11	2.98 ± 0.14	3.21 ± 0.097
DEFPSELSDSDRQIINE [SIR4]	3.53 ± 0.27	3.24 ± 0.16	–	2.89 ± 0.15
QDGGVTPYSNESGLVNA [RPO21]	2.68 ± 0.055	2.69 ± 0.065	2.63 ± 0.058	2.6 ± 0.068
LEANGRSLEKVNNSVSK [SSN2]	3.48 ± 0.15	3.47 ± 0.12	3.18 ± 0.11	3.37 ± 0.1
QVSINSNKILVYESEME [YIL149C/MLP2]	2.3 ± 0.11	3 ± 0.16	1.71 ± 0.21	2.92 ± 0.16
AVDAKQLAQIRQFLKAN [YML103C/NUP188]	2.58 ± 0.12	3.06 ± 0.079	2.96 ± 0.093	2.78 ± 0.067
FDDRGDVKVIMATNKIE [RPT2]	3.12 ± 0.12	3.18 ± 0.15	3.11 ± 0.083	3.27 ± 0.12
LKRMEILKSPHLSKSPA [SIR4]	2.96 ± 0.06	2.93 ± 0.066	2.95 ± 0.058	2.78 ± 0.045
HLDNSKSVFSSAGLDSA [RPN1]	2.58 ± 0.064	2.69 ± 0.043	2.25 ± 0.063	2.15 ± 0.055
TKTTGKCGSVTVRLIPA [RPS2]	1.34 ± 0.11	1.7 ± 0.082	1.35 ± 0.17	1.71 ± 0.11
SFDAVSDSIELLKQYPK [YJR042W/NUP85]	2.86 ± 0.083	3.16 ± 0.085	2.56 ± 0.11	2.59 ± 0.087
DVKFPSNTTTQIQFTPL [SMC3]	2.59 ± 0.16	2.64 ± 0.15	2.98 ± 0.14	2.76 ± 0.052
NVPVHVSPAFRVQVGDI [RPS11A]	2.69 ± 0.075	3.15 ± 0.08	2.68 ± 0.079	2.71 ± 0.06
LLENPNCFFDVIVPQIV [DIS3]	3.23 ± 0.13	3.12 ± 0.12	2.99 ± 0.065	2.36 ± 0.095
HLEEYGYLIQVLLTFLQ [YCS4]	1.59 ± 0.078	1.35 ± 0.09	1.21 ± 0.17	1.13 ± 0.097
DSIPRDVAYLLKSESAT [YGL172W/NUP49]	2.74 ± 0.092	3.11 ± 0.079	2.91 ± 0.05	3.19 ± 0.074
RLKVFEGIPPPYDKKKR [RPL16A]	2.99 ± 0.087	2.9 ± 0.094	3.05 ± 0.065	2.97 ± 0.08
SVVHPGEMVGVLAAQSI [RPO21]	1.29 ± 0.13	1.81 ± 0.089	–	1.26 ± 0.06
LARQVKLLLLNTSAIQE [YIL149C/MLP2]	2.19 ± 0.085	1.75 ± 0.073	1.56 ± 0.12	1.65 ± 0.038
KIYRVGKGDDEANGATS [RPL3]	3.45 ± 0.071	3.6 ± 0.1	3.67 ± 0.045	3.22 ± 0.11
